{"source": "patent US20190225703A1", "about": "(INNATE PHARMA, published 2019)", "key": {"[1]": {"target": "T1, human CD73 (ecto-5'-nucleotidase) expressed at the cell surface (human, UniProt P21589 27-549)", "T1 construct": "Used for huCD73-expressing recombinant cell lines, MDA-MB-231 cells (endogenous CD73), HEK-293T cells with wild type CD73, and primary T and B cells; also called huCD73; wild type CD73", "T1 sequence": "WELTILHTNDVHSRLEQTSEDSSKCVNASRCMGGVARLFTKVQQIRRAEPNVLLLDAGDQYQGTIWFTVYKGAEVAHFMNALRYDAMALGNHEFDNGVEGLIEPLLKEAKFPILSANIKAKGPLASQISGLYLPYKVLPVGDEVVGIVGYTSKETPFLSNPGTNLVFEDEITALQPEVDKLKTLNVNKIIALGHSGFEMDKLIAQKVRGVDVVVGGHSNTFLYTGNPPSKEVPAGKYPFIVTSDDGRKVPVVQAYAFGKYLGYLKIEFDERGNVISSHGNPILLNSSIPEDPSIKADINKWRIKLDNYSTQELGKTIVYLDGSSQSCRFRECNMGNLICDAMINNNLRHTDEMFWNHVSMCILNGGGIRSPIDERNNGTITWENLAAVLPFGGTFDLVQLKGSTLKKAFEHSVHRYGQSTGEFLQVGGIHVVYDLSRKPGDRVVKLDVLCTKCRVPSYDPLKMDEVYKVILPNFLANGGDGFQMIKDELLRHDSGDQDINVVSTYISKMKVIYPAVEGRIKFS", "experiment": "flow cytometry titration on human-CD73-expressing cell line", "experimental": "(§1) 10⁵ cells resuspended in PBS/0.2% BSA/0.02% NaN3 (named “staining buffer”) are distributed into round bottom 96W-microplates. Dose-range of anti-CD73 antibodies was added to the plates and cells are incubated for 45 min at 4° C. Cells were washed three times in staining buffer by spinning plates at 400 g for 3 min at 4° C. PE-coupled goat anti-mouse or goat anti-human IgG Fc fragment secondary antibodies (Beckman Coulter) diluted in staining buffer were added to the cells and plates are incubated for 30 additional minutes at 4° C. Cells were washed three times as described above and analyzed on an Accury C6 flow cytometer equipped with an HTFC plate reader.\n(§2) Median of fluorescence vs. antibodies concentration was plotted on graphs and EC50 is calculated using GraphPad Prism program."}, "[2]": {"target": "T1, human CD73 (ecto-5'-nucleotidase) …", "experiment": "flow cytometry titration on MDA-MB-231 cells, endogenous CD73", "experimental": "as §1, §2"}, "[3]": {"target": "T2, cynomolgus CD73 expressed at the cell surface (cynomolgus)", "T2 construct": "whole, on cells; Recombinant cell line expressing cynomolgus CD73; also called cynoCD73", "experiment": "flow cytometry titration on cynomolgus-CD73-expressing cell line", "experimental": "as §1, §2"}, "[4]": {"target": "T3, mouse CD73 expressed at the cell surface (mouse, UniProt Q61503 29-551)", "T3 construct": "whole, on cells; Recombinant cell line expressing mouse CD73; also called moCD73", "T3 sequence (looked up)": "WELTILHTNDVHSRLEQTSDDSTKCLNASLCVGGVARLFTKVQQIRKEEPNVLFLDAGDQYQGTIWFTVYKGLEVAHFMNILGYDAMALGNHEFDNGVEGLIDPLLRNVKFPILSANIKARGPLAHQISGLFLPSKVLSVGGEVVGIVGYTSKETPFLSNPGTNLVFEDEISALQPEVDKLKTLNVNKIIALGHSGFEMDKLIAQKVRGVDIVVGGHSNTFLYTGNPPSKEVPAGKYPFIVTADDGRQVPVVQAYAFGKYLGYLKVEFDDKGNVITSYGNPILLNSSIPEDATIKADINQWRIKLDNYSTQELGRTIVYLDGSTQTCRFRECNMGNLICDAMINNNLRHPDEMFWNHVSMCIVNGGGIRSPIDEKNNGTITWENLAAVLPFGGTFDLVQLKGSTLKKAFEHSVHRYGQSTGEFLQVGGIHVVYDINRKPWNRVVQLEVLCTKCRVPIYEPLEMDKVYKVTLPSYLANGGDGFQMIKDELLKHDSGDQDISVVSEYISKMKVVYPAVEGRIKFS", "experiment": "flow cytometry titration on a cell line expressing mouse CD73", "experimental": "as §1, §2"}, "human CD73 mutant 4": {"target": "T4, human CD73 mutant 4 (human, UniProt P21589 27-549)", "T4 construct": "Transfected in HEK-293T cells", "T4 chain": "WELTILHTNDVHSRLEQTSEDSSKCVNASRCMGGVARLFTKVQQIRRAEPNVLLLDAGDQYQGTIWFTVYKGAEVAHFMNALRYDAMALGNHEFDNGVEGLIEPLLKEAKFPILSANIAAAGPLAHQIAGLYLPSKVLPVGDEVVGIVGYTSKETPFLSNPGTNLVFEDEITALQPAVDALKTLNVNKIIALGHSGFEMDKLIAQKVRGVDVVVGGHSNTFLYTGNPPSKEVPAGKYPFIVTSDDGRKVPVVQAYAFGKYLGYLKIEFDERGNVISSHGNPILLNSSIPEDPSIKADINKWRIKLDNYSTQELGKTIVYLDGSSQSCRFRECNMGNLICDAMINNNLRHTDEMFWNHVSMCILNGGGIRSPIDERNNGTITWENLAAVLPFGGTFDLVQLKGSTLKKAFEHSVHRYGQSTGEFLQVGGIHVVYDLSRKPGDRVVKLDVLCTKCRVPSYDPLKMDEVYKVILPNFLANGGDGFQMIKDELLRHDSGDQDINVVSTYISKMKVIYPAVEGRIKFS", "experiment": "flow cytometry titration on HEK-293T cells transfected with CD73 mutant 4", "experimental": "(§3) Anti-CD73 antibodies are tested for their binding to each mutant by flow cytometry. A first experiment is performed to determine antibodies that lose their binding to one or several mutants at one concentration. To confirm a loss of binding, titration of antibodies is done on antibodies for which binding seemed to be affected by the CD73 mutations (1-0.1-0.01-0.001 μg/ml)."}, "[5]": {"target": "T1, human CD73 (ecto-5'-nucleotidase) …", "experiment": "flow cytometry titration on HEK-293T cells transfected with wild type human CD73", "experimental": "as §3"}}, "data": [{"binder": "antibody 7H10 (antibody, human IgG1, V domains shown) VH: DVQLQESGPGLVKPSQSLSLTCTVTGYSITSDYAWNWIRQFPGNKLEWMGYIIYSGSTSYNPSLNSRISITRDTSKNQFFLQLNSVTTEDTATYYCAREAYLYFDYWGQGTTLTVSS VL: DIQMTQTTSSLSASLGDRVTISCRASQDINNYLNWYQQKPDGTVKLLIYYTSRLHSGVPSRFSGSGSGTDYSLTISNLEREDVATYFCQQGNTLPWTFGGGTKLEIK", "values": [{"measurement": "EC50", "setting": "[1]", "result": 0.187, "unit": "µg/mL"}, {"measurement": "EC50", "setting": "[2]", "result": 0.054, "unit": "µg/mL"}, {"measurement": "fold lower EC50 than AD2", "setting": "[2]", "result": "~8", "unit": "fold"}, {"measurement": "EC50", "setting": "[3]", "result": 0.335, "unit": "µg/mL"}, {"measurement": "binding result", "setting": "[4]", "result": "no binding (tested: 10 µg/ml)"}, {"measurement": "EC50 (read off the curve)", "setting": "human CD73 mutant 4", "result": "~0.2", "unit": "µg/mL"}, {"measurement": "EC50 (read off the curve)", "setting": "[5]", "result": "~0.2", "unit": "µg/mL"}]}]}
